The labels stand for the following.
B1: UFD1L (parent)
chain: EAGGRFVAFSGEGQSLRKKGRKP
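Note: lentivirally expressed fusions sorted by FACS into six bins by GFP to DsRed ratio, PSI derived from sequencing read proportions per bin multiplied by bin number.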

In the data set the parent is B1. Nature of the data set: protein stability index of a GFP-peptide fusion (GPS, HEK-293T) (PSI 1-6); higher = more stable. The conditions noted are these: c terminus: native.
In the case of EAGGRFVAFPGEGQSLRKKGRKP [S10P], the protein stability index came to 2.83.
For EAGGRFVAFDGEGQSLRKKGRKP [S10D], the protein stability index is 2.36.
On to EAGGRFVAFNGEGQSLRKKGRKP [S10N], for which the protein stability index is 2.98.
With EAGGRFVAFKGEGQSLRKKGRKP [S10K], the protein stability index stood at 1.4.
Turning to EAGGRFVAFQGEGQSLRKKGRKP [S10Q], the protein stability index was found to be 3.48.
With EAGGRFVAFAGEGQSLRKKGRKP [S10A] the figure was 1.38; with EAGGRFVAFTGEGQSLRKKGRKP [S10T], 1.77; with EAGGRFVAFIGEGQSLRKKGRKP [S10I], 1.72.
With EAGGRFVIFSGEGQSLRKKGRKP [A8I], the protein stability index is 1.11.
EAGGRFVLFSGEGQSLRKKGRKP [A8L]: the protein stability index is 1.5.
Consider EAGGRFVFFSGEGQSLRKKGRKP [A8F], for which the protein stability index came to 2.8.
With EAGGRFVNFSGEGQSLRKKGRKP [A8N] the figure was 1.41.
With EAGGRFVTFSGEGQSLRKKGRKP [A8T], the protein stability index worked out at 1.77.
Take EAGGRFVQFSGEGQSLRKKGRKP [A8Q]: the protein stability index is 2.18.
EAGGRFVHFSGEGQSLRKKGRKP [A8H]: the protein stability index is 1.34.
Turning to EAGGRFVAFSGTGQSLRKKGRKP [E12T], the protein stability index was found to be 3.41.
EAGGRFVAFSGKGQSLRKKGRKP [E12K]: the protein stability index was 1.69.
Take EAGGRFVAFSGEGQDLRKKGRKP [S15D]: the protein stability index was 1.87.
With EAGGRFVAFSGEGQHLRKKGRKP [S15H] the figure was 2.1; with EAGGRFVAFSGEGQLLRKKGRKP [S15L], 2.95.
EAGGRFVAFSGEGQALRKKGRKP [S15A]: the protein stability index worked out at 2.2.
For the variant EAGGRFVAFSGEGQGLRKKGRKP [S15G], the protein stability index worked out at 2.42.
Regarding EAGGRYVAFSGEGQSLRKKGRKP [F6Y], the protein stability index worked out at 2.38.
For the variant EAGGRDVAFSGEGQSLRKKGRKP [F6D], the protein stability index is 4.59.
As for EAGGRQVAFSGEGQSLRKKGRKP [F6Q], the protein stability index came to 2.17.
With EAGGRHVAFSGEGQSLRKKGRKP [F6H], the protein stability index amounted to 1.75.
With EAGGRMVAFSGEGQSLRKKGRKP [F6M], the protein stability index stood at 1.81.
With EAGGRTVAFSGEGQSLRKKGRKP [F6T] the figure was 4.93; with EAGGRSVAFSGEGQSLRKKGRKP [F6S], 2.41; with EAGGRKVAFSGEGQSLRKKGRKP [F6K], 2.25.
Take EAGGRPVAFSGEGQSLRKKGRKP [F6P]: the protein stability index is 3.15.
EAGGRGVAFSGEGQSLRKKGRKP [F6G]: the protein stability index is 2.2.
With EAGGRAVAFSGEGQSLRKKGRKP [F6A] the figure was 3.06.
For the variant EAGGRFVAWSGEGQSLRKKGRKP [F9W], the protein stability index is 2.96.
Take EAGGRFVARSGEGQSLRKKGRKP [F9R]: the protein stability index was determined as 3.73.
EAGGRFVATSGEGQSLRKKGRKP [F9T]: the protein stability index was determined as 2.28.
For the variant EAGGRFVAASGEGQSLRKKGRKP [F9A], the protein stability index is 3.29.
Take EAGGRFVAPSGEGQSLRKKGRKP [F9P]: the protein stability index is 3.64.
For EAGGRFVAVSGEGQSLRKKGRKP [F9V], the protein stability index came out at 2.02.
Regarding EAGGRFVAESGEGQSLRKKGRKP [F9E], the protein stability index was 4.02.
In the case of EAGGRFVAQSGEGQSLRKKGRKP [F9Q], the protein stability index turned out to be 2.25.
Consider EAGGRFVAISGEGQSLRKKGRKP [F9I], for which the protein stability index amounted to 1.19.
With EAGGRFVAKSGEGQSLRKKGRKP [F9K] the figure was 1.75; with EAGGRFVAHSGEGQSLRKKGRKP [F9H], 1.
Consider EAGGRFVAFSGEGGSLRKKGRKP [Q14G], for which the protein stability index stood at 2.12.
As for EAGGRFVAFSGEGDSLRKKGRKP [Q14D], the protein stability index is 1.26.
On to EAGGRFVAFSGEGFSLRKKGRKP [Q14F], for which the protein stability index amounted to 2.93.
On to EAGGRFVAFSGEGVSLRKKGRKP [Q14V], for which the protein stability index was determined as 2.4.
Regarding EAGGRFVAFSGEGASLRKKGRKP [Q14A], the protein stability index came out at 1.83.
Regarding EAGGRFVAFSGEGSSLRKKGRKP [Q14S], the protein stability index was 2.5.
Regarding EAGGRFVAFSGEGESLRKKGRKP [Q14E], the protein stability index was 1.58.
Regarding EAGGRFVAFSGEGNSLRKKGRKP [Q14N], the protein stability index came out at 2.02.
With EAGGRFVAFSGEGCSLRKKGRKP [Q14C], the protein stability index came to 3.07.
Take EAGGRFVAFSGEGRSLRKKGRKP [Q14R]: the protein stability index worked out at 2.51.
Regarding EAGGRFLAFSGEGQSLRKKGRKP [V7L], the protein stability index was 1.5.
For the variant EAGGRFGAFSGEGQSLRKKGRKP [V7G], the protein stability index was found to be 1.39.
Regarding EAGGRFNAFSGEGQSLRKKGRKP [V7N], the protein stability index turned out to be 2.18.
As to EAGGRFAAFSGEGQSLRKKGRKP [V7A], the protein stability index was 2.69.
Consider EAGGRFFAFSGEGQSLRKKGRKP [V7F], for which the protein stability index turned out to be 1.9.
As to EAGGRFHAFSGEGQSLRKKGRKP [V7H], the protein stability index is 1.37.
The same measure for EAGGRFIAFSGEGQSLRKKGRKP [V7I]: 1.9.
EAGGRFTAFSGEGQSLRKKGRKP [V7T]: the protein stability index is 1.18.
Regarding EAGGRFSAFSGEGQSLRKKGRKP [V7S], the protein stability index came out at 1.72.
For EAGGRFCAFSGEGQSLRKKGRKP [V7C], the protein stability index was found to be 2.03.
For the variant EAGGRFDAFSGEGQSLRKKGRKP [V7D], the protein stability index was 3.75.
As to EAGGRFYAFSGEGQSLRKKGRKP [V7Y], the protein stability index came to 1.12.
The same measure for EAGGRFEAFSGEGQSLRKKGRKP [V7E]: 2.91; for EAGGRFVAFSCEGQSLRKKGRKP [G11C]: 2.52.
For the variant EAGGRFVAFSPEGQSLRKKGRKP [G11P], the protein stability index stood at 2.21.
For the variant EAGGRFVAFSLEGQSLRKKGRKP [G11L], the protein stability index is 1.85.
The same measure for EAGGRFVAFSSEGQSLRKKGRKP [G11S]: 1.54; for EAGGRFVAFSNEGQSLRKKGRKP [G11N]: 1.82; for EAGGRFVAFSAEGQSLRKKGRKP [G11A]: 1.26.
As to EAGGRFVAFSGEKQSLRKKGRKP [G13K], the protein stability index was 2.03.
As for EAGGRFVAFSGERQSLRKKGRKP [G13R], the protein stability index was 1.35.
For the variant EAGGRFVAFSGEPQSLRKKGRKP [G13P], the protein stability index was 2.73.
For EAGGRFVAFSGEVQSLRKKGRKP [G13V], the protein stability index is 2.38.
As to EAGGRFVAFSGEIQSLRKKGRKP [G13I], the protein stability index was 1.28.
Regarding EAGGRFVAFSGEAQSLRKKGRKP [G13A], the protein stability index was 2.22.
Turning to EAGGRFVAFSGENQSLRKKGRKP [G13N], the protein stability index was determined as 1.55.
With EAGGRFVAFSGEQQSLRKKGRKP [G13Q], the protein stability index was determined as 1.16.
EAGGRFVAFSGESQSLRKKGRKP [G13S]: the protein stability index worked out at 1.9.
The same measure for EAGGRFVAFSGELQSLRKKGRKP [G13L]: 2.52.
As for EAGGRFVAFSGETQSLRKKGRKP [G13T], the protein stability index is 1.23.
EAGGMFVAFSGEGQSLRKKGRKP [R5M]: the protein stability index was determined as 1.85.
On to EAGGPFVAFSGEGQSLRKKGRKP [R5P], for which the protein stability index worked out at 3.69.
The same measure for EAGGKFVAFSGEGQSLRKKGRKP [R5K]: 2.01; for EAGGYFVAFSGEGQSLRKKGRKP [R5Y]: 1.48.
Consider EAGGLFVAFSGEGQSLRKKGRKP [R5L], for which the protein stability index was found to be 2.46.
On to EAGGQFVAFSGEGQSLRKKGRKP [R5Q], for which the protein stability index was 3.3.
The same measure for EAGGDFVAFSGEGQSLRKKGRKP [R5D]: 4.49; for EAGGTFVAFSGEGQSLRKKGRKP [R5T]: 3.2.
As for EAGGEFVAFSGEGQSLRKKGRKP [R5E], the protein stability index was found to be 3.18.
As to EAGGFFVAFSGEGQSLRKKGRKP [R5F], the protein stability index was determined as 2.14.
The same measure for EAGGIFVAFSGEGQSLRKKGRKP [R5I]: 1.48; for EAGGSFVAFSGEGQSLRKKGRKP [R5S]: 3.17; for EAGGNFVAFSGEGQSLRKKGRKP [R5N]: 2.6.

These data come from the supplement of paper PMC10567573.
